{"source": "paper PMC8239432", "about": "“Cross-Reactive SARS-CoV-2 Neutralizing Antibodies From Deep Mining of Early Patient Responses” (Frontiers in Immunology, 2021)", "settings_in_all_cases": "both partners purified", "key": {"[1]": {"biological_target": "T1, SARS-CoV-2 RBD-rCD4-Avi-His (SARS-CoV-2 (reference sequence), UniProt P0DTC2)", "T1 construct": "also called RBD-rCD4-His", "test": "SPR"}, "[2]": {"biological_target": "T2, SARS CoV-2 RBD (Acro BioSystems, SPDC52H3) (SARS-CoV-2 (reference sequence), UniProt P0DTC2)", "T2 construct": "source: bought: Acro BioSystems", "test": "BLI"}, "SARS-CoV-1 RBD": {"biological_target": "T3, SARS-CoV-1 RBD (SARS-CoV-1 (SARS-CoV); isolate not …, UniProt P59594)", "T3 construct": "also called RBD subdomain of the SARS-CoV-1 spike protein; source: Expi293F, purified (Nickel-NTA agarose)", "test": "binding assay based on time resolved fluorescence (TRF)"}, "[3]": {"biological_target": "T4, MERS-CoV S1 with a His tag (MERS-CoV, isolate EMC/2012 (from …, UniProt K0BRG7))", "T4 construct": "source: bought: Sino Biological", "test": "binding assay based on time resolved fluorescence (TRF)"}, "[4]": {"biological_target": "T5, SARS-CoV-2 RBD-rCD4-Avi-His (SARS-CoV-2, UniProt P0DTC2)", "T5 construct": "also called RBD-rCD4-His; monomeric RBD; source: Expi293F, purified (Nickel-NTA agarose)", "test": "SPR"}}, "data": [{"binder": "ION_300 IgG1 (antibody, V domains shown, source: ExpiCHO or Expi293, purified (protein A, SEC)) VH: QVQLVQSGAEVKKPGESLKISCKGSGYSFTSYWIGWVRQMPGKGLEWMGIIYPGDSDTRYSPSFQGQVTISADKSISTAYLQWSSLKASDTAMYYCARHPSPYYYGSGSYSGGFDYWGQGTLVTVSS VL: DIVMTQSPGTLSLSPGERATLSCRASQSVSSSYLAWYQQKPGQAPRLLIYGASTRATGIPARFSGSGSGTEFTLTISSLQSEDFAVYYCQQYDNWPLMHTFGQGTKLEIK", "values": [{"measurement": "Kd", "setting": "[1]", "value": 3.4, "unit": "nM"}, {"measurement": "koff", "setting": "[1]", "value": 0.000775, "unit": "s⁻¹"}, {"measurement": "kon", "setting": "[1]", "value": 252000, "unit": "M⁻¹ s⁻¹"}]}, {"binder": "ION_300 IgG1 (antibody, V domains shown) VH: QVQLVQSGAEVKKPGESLKISCKGSGYSFTSYWIGWVRQMPGKGLEWMGIIYPGDSDTRYSPSFQGQVTISADKSISTAYLQWSSLKASDTAMYYCARHPSPYYYGSGSYSGGFDYWGQGTLVTVSS VL: DIVMTQSPGTLSLSPGERATLSCRASQSVSSSYLAWYQQKPGQAPRLLIYGASTRATGIPARFSGSGSGTEFTLTISSLQSEDFAVYYCQQYDNWPLMHTFGQGTKLEIK", "values": [{"measurement": "binding result", "setting": "[2]", "value": "binds"}, {"measurement": "binding result", "setting": "SARS-CoV-1 RBD", "value": "binds"}, {"measurement": "binding result", "setting": "[3]", "value": "no binding"}]}, {"binder": "ION_360 IgG1 (antibody, V domains shown, source: ExpiCHO or Expi293, purified (protein A, SEC)) VH: EVQLVQSGGGLVKPGGSLRLSCAASGITVSSNYMSWVRQAPGKGLEWVSVIYSGGSTYYADSVKGRFTISRDNSKNTLYLQMNSLRAEDTAVYYCARGEGGSIVGVTSDYWGQGTLVTVSS VL: DIQMTQSPSSLSASVGDRVTITCRASQSISRYLNWYQQKPGKAPKLLIYAASSLQSGVPSRFSGSGSETEFTLTISSLHPDDFATYYCQQSYSTLPYTFGQGTKVEIK", "values": [{"measurement": "koff", "setting": "[1]", "value": 0.000279, "unit": "s⁻¹"}, {"measurement": "kon", "setting": "[1]", "value": 188000, "unit": "M⁻¹ s⁻¹"}]}, {"binder": "ION_360 IgG1 (antibody, V domains shown) VH: EVQLVQSGGGLVKPGGSLRLSCAASGITVSSNYMSWVRQAPGKGLEWVSVIYSGGSTYYADSVKGRFTISRDNSKNTLYLQMNSLRAEDTAVYYCARGEGGSIVGVTSDYWGQGTLVTVSS VL: DIQMTQSPSSLSASVGDRVTITCRASQSISRYLNWYQQKPGKAPKLLIYAASSLQSGVPSRFSGSGSETEFTLTISSLHPDDFATYYCQQSYSTLPYTFGQGTKVEIK", "values": [{"measurement": "Kd", "setting": "[4]", "value": 1.5, "unit": "nM"}]}]}
